Test [1] relates to 3×MBT domain of L3MBTL1. In words: SILAC proteomic pull-down 3×MBT vs 3×MBTD355N from 293T nuclear extract, LC-MS/MS. The class given is binding, human. Conditions: SILAC ratio, 293T nuclear extract pull-down; * = protein identified in only one labeling experiment. How it is done:
Protein pull-downs were performed as described above using 600 μg of nuclear extract prepared with isotopic labels as indicated. After eluting with glutathione, 3×MBT domain was removed by dialysis into high salt and rebinding to GSH-sepharose. Bound proteins were separated by SDS-PAGE and analyzed by in-gel tryptic digest followed by LC-MS/MS. Peptides were identified using MaxQuant version 1.2.2.5 (Cox and Mann (2008) Nat. Biotechnol. 26, 1367-1372) and candidate methylated peptides were verified by manual inspection.
For stable isotope labeling by amino acids in cell culture (SILAC) experiments HEK 293T cells were grown for at least six doublings in DMEM for SILAC supplemented with 10% dialyzed fetal bovine serum (FBS), 230 mg/L L-proline and either 100 mg/L each of L-lysine and L-arginine (“light” medium), D4-L-lysine and ^13C6-L-arginine (“medium” media), or ^13C6^15N2-L-lysine and ^13C6^15N4-L-arginine (Thermo Scientific). Heavy methyl labeling used DMEM without L-Methionine or L-Cysteine supplemented with D3^13C-L-Methionine (Sigma), L-Cysteine (Sigma) and 10% dialyzed FBS.
600 μg of nuclear extract was incubated overnight rotating at 4° C. with 20 μl packed 3×MBT or 3×MBTD355N beads in a total volume of 250 μL with binding buffer. Supernatant was removed and saved for use as a loading control. Beads were washed 4×5 minutes with 0.5 mL binding buffer. Protein was eluted by incubating in 20 μL elution buffer (10 mg/mL glutathione in 50 mM Tris pH 8.0) rotating at 4° C. for four hours. Elutions from 3×MBT and 3×MBTD355N were combined and dialyzed overnight at 4° C. against 10,000× volume of dissociation buffer (50 mM Tris pH 7.5, 750 mM NaCl) in a 0.1 mL Slide-A-Lyzer MINI Dialysis Device with 3.5K molecular weight cutoff (Thermo Scientific). 80 μL of GSH-Sepharose was prepared by washing briefly three times with 0.5 mL binding buffer. Dialyzed proteins were added to the GSH-Sepharose and incubated 4 hours rotating at 4° C. to deplete the GST-fusion domains. Supernatant was transferred to a fresh 1.5 mL tube. Proteins were separated by SDS-PAGE on a 10% polyacrylamide gel and stained using SilverQuest Silver Staining Kit (Life Technologies). Lanes were excised, residual 3×MBT band was removed, and gel was diced into 0.5 mm cubes. Gel pieces were destained and processed by in-gel digestion (Carlson et al. (2011) Science Signaling 4) with sequencing grade trypsin (Promega) and the peptide sample was dried completely in a vacuum centrifuge. To prepare a loading control, 2 μL each of light and heavy nuclear extract were combined, 6 μL of 8M urea was added, proteins were denatured by adding 2 μL of 100 mM dithiothreitol in digest buffer (50 mM ammonium bicarbonate) and heating to 60° C. for 1 hour, cysteine was alkylated by adding 2.2 μL 100 mg/mL iodoacetamide in digest buffer and incubating 1 hour at room temperature in darkness, and proteins were digested by adding 80 μL trypsin (Promega) at 12.5 ng/μL in digest buffer and incubating overnight at room temperature in darkness. Digestion was stopped by adding 10 μL of 10% formic acid.
Each experiment consisted of two sets of pull-downs: “forward” labeling with 3×MBT incubated with light nuclear extract and 3×MBTD355N with medium extract, and a second “reverse” labeling experiment with the label conditions swapped. Proteins were included in the results if they were quantified in both labeling directions. To determine reproducibility the entire experiment including the label swap was duplicated using independent protein preparations and a mass spectrometer at another institution.
For 3×MBT pull-down experiment #1 the gel lane was processed and peptides were loaded off-line onto a first dimension trap column (Waters Xbridge, C18, 10 μm particle size, 100 Å pore size, 5 cm packing length, 150 μm column i.d.). […]

In test [2] the test system is 3×MBT domain of L3MBTL1. Briefly: Triple SILAC pull-down, 3xMBT/3xMBTD355N ratio (cytoplasmic, nuclear and chromatin fractions of 293T cells).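 As to all read-outs here: proteins quantified with MaxQuant, requiring at least two unique peptides and quantification in both label directions, normalized to the mean of proteins from a digested loading control.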 The class given is binding, human. The following applies: for 3xMBT/D355N UNC Heavy: experiment with UNC0638 in heavy SILAC media; for 3xMBT/D355N UNC Light: experiment with UNC0638 in light SILAC media.
Setting [3] is: SILAC ratio, pull-down 3xMBT vs 3xMBTD355N.
Where [4] appears, read: SILAC ratio 3xMBT vs 3xMBTD355N pull-down, 293T cells, all values in log base 2.

From patent publication US20140274782A1, “AFFINITY REAGENTS AND METHODS FOR DETECTION, PURIFICATION, AND PROTEOMIC ANALYSIS OF METHYLATED PROTEINS” (The Board of Trustees of the Leland Stanford Junior …, priority 2013, published 2014) come the findings set out here.

B1: NHP2L1: protein with methylated lysine identified in 3xMBT pull-down (protein, UniProt P55769 1-128, looked up)
NHP2-like protein 1: MTEADVNPKAYPLADAHLTKKLLDLVQQSCNYKQLRKGANEATKTLNRGISEFIVMAADAEPLEIILHLPLLCEDKNVPYVFVRSKQALGRACGVSRPVIACSVTIKEGSQLKQQIQSIQQSIERLLV
Turning to B1, the “Protein Ratio 3xMBT/D355N” value with 3×MBT domain of L3MBTL1 [1] was 4.4*. Further, in the test on 3×MBT domain of L3MBTL1 [2] (setting [3]), the “3xMBT/D355N UNC Heavy” value was determined as 1.56 log base 2 and the “3xMBT/D355N UNC Light” value is reported as 3.46 log base 2.

B2: SCML2: protein with methylated lysine identified in 3xMBT pull-down (protein, UniProt Q9UQR0 1-700, looked up)
Sex comb on midleg-like …: MGQTVNEDSMDVKKENQEKTPQSSTSSVQRDDFHWEEYLKETGSISAPSECFRQSQIPPVNDFKVGMKLEARDPRNATSVCIATVIGITGARLRLRLDGSDNRNDFWRLVDSPDIQPVGTCEKEGDLLQPPLGYQMNTSSWPMFLLKTLNGSEMASATLFKKEPPKPPLNNFKVGMKLEAIDKKNPYLICPATIGDVKGDEVHITFDGWSGAFDYWCKYDSRDIFPAGWCRLTGDVLQPPGTSVPIVKNIAKTESSPSEASQHSMQSPQKTTLILPTQQVRRSSRIKPPGPTAVPKRSSSVKNITPRKKGPNSGKKEKPLPVICSTSAASLKSLTRDRGMLYKDVASGPCKIVMSTVCVYVNKHGNFGPHLDPKRIQQLPDHFGPGPVNVVLRRIVQACVDCALETKTVFGYLKPDNRGGEVITASFDGETHSIQLPPVNSASFALRFLENFCHSLQCDNLLSSQPFSSSRGHTHSSAEHDKNQSAKEDVTERQSTKRSPQQTVPYVVPLSPKLPKTKEYASEGEPLFAGGSAIPKEENLSEDSKSSSLNSGNYLNPACRNPMYIHTSVSQDFSRSVPGTTSSPLVGDISPKSSPHEVKFQMQRKSEAPSYIAVPDPSVLKQGFSKDPSTWSVDEVIQFMKHTDPQISGPLADLFRQHEIDGKALFLLKSDVMMKYMGLKLGPALKLCYYIEKLKEGKYS
Take B2: the “Protein Ratio 3xMBT/D355N” value with 3×MBT domain of L3MBTL1 [1] is recorded as 1.7. For the same molecule, in the test on 3×MBT domain of L3MBTL1 [2] (setting [4]), the “3xMBT/D355N UNC Heavy” value came to 1.39 log base 2 and the “3xMBT/D355N UNC Light” value is 1.28 log base 2.

B3: MCM4: protein with methylated lysine identified in 3xMBT pull-down (protein, UniProt P33991 2-863, looked up)
DNA replication licensing …: SSPASTPSRRGSRRGRATPAQTPRSEDARSSPSQRRRGEDSTSTGELQPMPTSPGVDLQSPAAQDVLFSSPPQMHSSAIPLDFDVSSPLTYGTPSSRVEGTPRSGVRGTPVRQRPDLGSAQKGLQVDLQSDGAAAEDIVASEQSLGQKLVIWGTDVNVAACKENFQRFLQRFIDPLAKEEENVGIDITEPLYMQRLGEINVIGEPFLNVNCEHIKSFDKNLYRQLISYPQEVIPTFDMAVNEIFFDRYPDSILEHQIQVRPFNALKTKNMRNLNPEDIDQLITISGMVIRTSQLIPEMQEAFFQCQVCAHTTRVEMDRGRIAEPSVCGRCHTTHSMALIHNRSLFSDKQMIKLQESPEDMPAGQTPHTVILFAHNDLVDKVQPGDRVNVTGIYRAVPIRVNPRVSNVKSVYKTHIDVIHYRKTDAKRLHGLDEEAEQKLFSEKRVELLKELSRKPDIYERLASALAPSIYEHEDIKKGILLQLFGGTRKDFSHTGRGKFRAEINILLCGDPGTSKSQLLQYVYNLVPRGQYTSGKGSSAVGLTAYVMKDPETRQLVLQTGALVLSDNGICCIDEFDKMNESTRSVLHEVMEQQTLSIAKAGIICQLNARTSVLAAANPIESQWNPKKTTIENIQLPHTLLSRFDLIFLLLDPQDEAYDRRLAHHLVALYYQSEEQAEEELLDMAVLKDYIAYAHSTIMPRLSEEASQALIEAYVDMRKIGSSRGMVSAYPRQLESLIRLAEAHAKVRLSNKVEAIDVEEAKRLHREALKQSATDPRTGIVDISILTTGMSATSRKRKEELAEALKKLILSKGKTPALKYQQLFEDIRGQSDIAITKDMFEEALRALADDDFLTVTGKTVRLL
modifications: methylated lysine
notes: protein with methylated lysine identified in 3xMBT pull-down
On to B3, for which the “Protein Ratio 3xMBT/D355N” value in the test on 3×MBT domain of L3MBTL1 [1] was 6.6. In the test on 3×MBT domain of L3MBTL1 [2] (setting [3]), the “3xMBT/D355N UNC Heavy” value was 1.92 log base 2 and the “3xMBT/D355N UNC Light” value came out at 2.16 log base 2.
